This is an account of results in the RNAGym collection of RNA variant scans (doi:10.7554/elife.80360).

B1: CPEB3 Ribozyme (parent)
chain: GGGGGCCACAGCAGAAGCGUUCACGUCGCGGCCCCUGUCAGAUUCUGGUGAAUCUGCGAAUUCUGCUGU

Variants of B1 are the subject of the series. The series can be described thus: self-cleavage, relative activity (ratio to wild type); higher = more cleavage; co-transcriptional.
GGGGGCCACAGCAGAAGCGUUCCCGUCGCGGCCCCUGUCAGAUUCUGGUGAAUCGGCGAAUUCUGCUGU [A23C U55G]: the self-cleavage is 0.708.
Consider GGGGGCCACAGCAGAAGCGUUCCCGUCGCGGCCCCUGUCAGAUUCUGGUGAAUCAGCGAAUUCUGCUGU [A23C U55A], for which the self-cleavage amounted to 0.866.
Next, GGGGGCCACAGCAGAAGCGUUCCCGCCGCGGCCCCUGUCAGAUUCUGGUGAAUCUGCGAAUUCUGCUGU [A23C U26C]: 0.966.
Regarding GGGGGCCACAGCAGAAGCGUUCCCGACGCGGCCCCUGUCAGAUUCUGGUGAAUCUGCGAAUUCUGCUGU [A23C U26A], the self-cleavage stood at 0.628.
Next, GGGGGCCACAGCAGAAGCGUUCCCGUCGCGGCCCCUGUCAGAUUCUGGUGAAUCUGCGAACUCUGCUGU [A23C U61C]: 0.689; GGGGGCCACAGCAGAAGCGUUCCCGUCGCGGCCCCUGACAGAUUCUGGUGAAUCUGCGAAUUCUGCUGU [A23C U38A]: 0.75.
Next, GGGGGCCACAGCAGAAGCGUUCCCGUCGCGGCCCCUGCCAGAUUCUGGUGAAUCUGCGAAUUCUGCUGU [A23C U38C]: 0.85; GGGGGCCACAGCAGAAGCGUUCGCGUCGCGGCCCCUGUCAGAUUCUGGUGCAUCUGCGAAUUCUGCUGU [A23G A51C]: 0.914.
Turning to GGGGGCCACAGCAGAAGCGUUCGCGUCGCGGCCCCUGUCAGAUUCUGGUGGAUCUGCGAAUUCUGCUGU [A23G A51G], the self-cleavage is 0.962.
In the case of GGGGGCCACAGCAGAAGCGUUCGCGUCGCGGCCCCUGUCAGAUUCUGAUGAAUCUGCGAAUUCUGCUGU [A23G G48A], the self-cleavage turned out to be 1.
Next, GGGGGCCACAGCAGAAGCGUUCCCGUCGCGGCCCCUGUCAGAUUCUGAUGAAUCUGCGAAUUCUGCUGU [A23C G48A]: 0.978; GGGGGCCACAGCAGAAGCGUUCCCGUCGCGGCCCCUGUCAGAUUCUGUUGAAUCUGCGAAUUCUGCUGU [A23C G48U]: 0.942.
Next, GGGGGCCACAGCAGAAGCGUUCCCGUCGCGGCCCCUGUCAGACUCUGGUGAAUCUGCGAAUUCUGCUGU [A23C U43C]: 0.89.
Next, GGGGGCCACAGCAGAAGCGUUCGCGUCGCGGCCCCUGUCAGAUUCUGGUGAAUCUGAGAAUUCUGCUGU [A23G C57A]: 0.394; GGGGGCCACAGCAGAAGCGUUCCCGUCGCGGCCCCUUUCAGAUUCUGGUGAAUCUGCGAAUUCUGCUGU [A23C G37U]: 0.299.
GGGGGCCACAGCAGAAGCGUUCGCGUCGCGUCCCCUGUCAGAUUCUGGUGAAUCUGCGAAUUCUGCUGU [A23G G31U]: the self-cleavage is 0.583.
Next, GGGGGCCACAGCAGAAGCGUUCGCGUCGCGACCCCUGUCAGAUUCUGGUGAAUCUGCGAAUUCUGCUGU [A23G G31A]: 0.781.
Next, GGGGGCCACAGCAGAAGCGUUCCCGUCGCGGCCCCUGUCAGAUUCUGGUGAAUCUGCGAAUUCUGCUGG [A23C U69G]: 1.02; GGGGGCCACAGCAGAAGCGUUCCCGUCGCGGCCCCUGUCUGAUUCUGGUGAAUCUGCGAAUUCUGCUGU [A23C A40U]: 0.79; GGGGGCCACAGCAGAAGCGUUCCCGUCGCGGCCCCUGUCCGAUUCUGGUGAAUCUGCGAAUUCUGCUGU [A23C A40C]: 0.544.
Next, GGGGGCCACAGCAGAAGCGUUCGCGUCGCGGCCCCUGUUAGAUUCUGGUGAAUCUGCGAAUUCUGCUGU [A23G C39U]: 0.86.
With GGGGGCCACAGCAGAAGCGUUUACGUCGCGGCCCCUGUCAGAUUCUGGUGAAUCUGCGAAUUCGGCUGU [C22U U64G], the self-cleavage was 0.237.
Next, GGGGGCCACAGCAGAAGCGUUUACGUCGCGGCCCCUGUCAGAUUCUGGUGAAUCUGCGAAUUCCGCUGU [C22U U64C]: 0.279; GGGGGCCACAGCAGAAGCGUUCGCGUCGCGGCCGCUGUCAGAUUCUGGUGAAUCUGCGAAUUCUGCUGU [A23G C34G]: 0.243.
As for GGGGGCCACAGCAGAAGCGUUCCCGUCGCGGCCCCGGUCAGAUUCUGGUGAAUCUGCGAAUUCUGCUGU [A23C U36G], the self-cleavage stood at 0.326.
Next, GGGGGCCACAGCAGAAGCGUUCCCGUCGCGGCCCCAGUCAGAUUCUGGUGAAUCUGCGAAUUCUGCUGU [A23C U36A]: 0.335; GGGGGCCACAGCAGAAGCGUUUACGUCGCGGCCCCUGUCAGAUUCUGGUGAAUCUGCGAAUUCUGCGGU [C22U U67G]: 0.332; GGGGGCCACAGCAGAAGCGUUUACGUCGCGGCCCCUGUCAGAUUCUGGUGAAUCUGCGAAUUCUGCCGU [C22U U67C]: 0.365.
Next, GGGGGCCACAGCAGAAGCGUUCCCGUCGCGGCCCCUGUUAGAUUCUGGUGAAUCUGCGAAUUCUGCUGU [A23C C39U]: 0.796; GGGGGCCACAGCAGAAGCGUUCCCGUCGCGGCCCCUGUCAGAUUCUGGUGAAUCUGCGAAUUCUGCGGU [A23C U67G]: 0.968; GGGGGCCACAGCAGAAGCGUUCGCGUCGUGGCCCCUGUCAGAUUCUGGUGAAUCUGCGAAUUCUGCUGU [A23G C29U]: 0.217.
Next, GGGGGCCACAGCAGAAGCGUUCCCGUCGCGGCCCCUGUCAGAUUCUGGUGAAUCUGCGAUUUCUGCUGU [A23C A60U]: 0.516; GGGGGCCACAGCAGAAGCGUUCCCGUCGCGGCCCCUGUCAGAUUCUGGUGAAUCUGCGAAUACUGCUGU [A23C U62A]: 0.755; GGGGGCCACAGCAGAAGCGUUCCCGUCGCGGCCCCUGUCAGAUUCUGGGGAAUCUGCGAAUUCUGCUGU [A23C U49G]: 0.916.
Consider GGGGGCCACAGCAGAAGCGUUCGCGUCGCGGCCCCUGUCAGAUUCUGGUGAAUCUGCGGAUUCUGCUGU [A23G A59G], for which the self-cleavage amounted to 1.01.
For GGGGGCCACAGCAGAAGCGUUCGCGUGGCGGCCCCUGUCAGAUUCUGGUGAAUCUGCGAAUUCUGCUGU [A23G C27G], the self-cleavage was 0.175.
Next, GGGGGCCACAGCAGAAGCGUUCGCGUCGCGGCCCCUGUCAGGUUCUGGUGAAUCUGCGAAUUCUGCUGU [A23G A42G]: 0.867; GGGGGCCACAGCAGAAGCGUUCGCGUCGCGGCCCCUGUCAGCUUCUGGUGAAUCUGCGAAUUCUGCUGU [A23G A42C]: 0.911; GGGGGCCACAGCAGAAGCGUUCGCGUCGCGGCCCCUGUCAGUUUCUGGUGAAUCUGCGAAUUCUGCUGU [A23G A42U]: 0.862.
